Experimental data published in patent US20240218057A1.

Experiments:
Test in all cases: cell-based or functional assay
[1] = biological target: wildtype SARS-COV-2 spike protein on pseudotyped virus (SARS-CoV-2) (UniProt P0DTC2)
[2] = biological target: SARS-COV-2 spike protein (pSARS-COV-2-SΔ19) on HIV-1 pseudotyped particles (SARS-COV-2) (UniProt P0DTC2)
[3] = biological target: SARS-CoV-2 spike protein (wild type, pSARS-COV-2-SΔ19) on HIV-1 pseudotyped particles (SARS-CoV-2) (UniProt P0DTC2)
[4] = biological target: wildtype SARS-CoV-2 spike protein (pseudovirus) (SARS-CoV-2) (UniProt P0DTC2)

Row | Substance | neutralization IC50 [1] [ng/mL] | neutralization IC90 [1] [ng/mL] | IC50 [2] [ng/mL] | IC90 [2] [ng/mL] | Neutralization activity IC50 [3] [ng/mL] | Neutralization activity IC90 [3] [ng/mL] | IC50 neutralization [4] [ng/mL] | IC90 neutralization [4] [ng/mL]
1 | C121 (antibody) | 5.1 | 19.8 | – | – | – | – | – | –
2 | C135 (antibody) | 8.59 | 40.6 | – | – | – | – | – | –
3 | C144 (antibody) | 3.74 | 15.9 | 2.86 | 40.5 | 2.86 | 40.5 | 3.7 | 15.9
